The data set addresses ZF-GDH (Zif268 fused to N-terminus of AfGDH) (mouse (Zif268); Aspergillus flavus (GDH), UniProt P08046 336-416). Kind of data set: method not stated; states fusion kept dsDNA binding, with ref 25; TBS: 10 mM Tris-HCl, 100 mM NaCl, pH 7.0; washes with 0.05% Tween-20, block 4% skim milk; 25 °C, 1 h.

B1: Zif268 target dsDNA (dsDNA)
DNA 1: GCGTGGGCG
DNA 2: CGCCCACGC
B1: the binding result was “binds”.

The values above are taken from PMC7411789, “Application of a Glucose Dehydrogenase-Fused with Zinc Finger Protein to Label DNA Aptamers for the Electrochemical Detection of VEGF”.
